In PMC4489622:
Where “and” joins values, the source holds several entries; their conditions need not be identical. Equal values may be shown once. Each block holds one substance with its values, some of them ahead of it.

What was measured:
[1] = biological target: Helicobacter pylori DNA processing protein A (HpDprA), full length, strain J99 (Helicobacter pylori strain J99) (UniProt B5ZAA1); assay: SEC; Superdex 75 HR 10/300, 1X PBS, 0.3 ml/min, 500 µl injected, protein at 2 mg/ml, apparent mass from standards
[2] = biological target: Helicobacter pylori DNA processing protein A (HpDprA), full length, strain J99 (Helicobacter pylori strain J99) (UniProt B5ZAA1); assay: SPR; BIAcore 3000; the same protein amine-coupled on a CM5 chip (~1000 RU) and injected; 25 °C, 10 mM HEPES pH 7.4, 150 mM NaCl, 1 mM EDTA, 0.05% P-20, 20 µl/min; kon from 1:1 Langmuir fit, koff from the main phase of a biphasic dissociation, Kd = koff/kon
[3] = biological target: Helicobacter pylori DNA processing protein A (HpDprA), full length, strain J99 (Helicobacter pylori strain J99) (UniProt B5ZAA1); assay: cross-linking; glutaraldehyde on ice, SDS-10% PAGE, silver staining; HpDprA 5 µM with 0.01% to 0.5% glutaraldehyde at 4 °C for 15 min; conditions for HpRF in the legend of Fig B in S1 File
[4] = biological target: HpDML1, C-terminal DML-1 like domain of HpDprA (residues 213-266) (Helicobacter pylori strain J99) (UniProt B5ZAA1); assay: cross-linking; glutaraldehyde on ice, SDS-12% PAGE, silver staining; HpDML1 at 140 µM, longer incubation with the cross-linker
[5] = biological target: HpDML1, C-terminal DML-1 like domain of HpDprA (residues 213-266) (Helicobacter pylori strain J99) (UniProt B5ZAA1); assay: SPR; BIAcore 3000; the same protein amine-coupled on a CM5 chip (~1000 RU) and injected; 25 °C, 10 mM HEPES pH 7.4, 150 mM NaCl, 1 mM EDTA, 0.05% P-20, 20 µl/min; kon from 1:1 Langmuir fit, koff from the main phase of a biphasic dissociation, Kd = koff/kon
[6] = biological target: HpDML1, C-terminal DML-1 like domain of HpDprA (residues 213-266) (Helicobacter pylori strain J99) (UniProt B5ZAA1); assay: SEC; Superdex 75 HR 10/300, 1X PBS, 0.3 ml/min, 500 µl injected, protein at 8 mg/ml, apparent mass from standards
[7] = biological target: HpRF, N-terminal Rossmann fold domain of HpDprA (residues 1-212) (Helicobacter pylori strain J99) (UniProt B5ZAA1); assay: SEC; Superdex 75 HR 10/300, 1X PBS, 0.3 ml/min, 500 µl injected, protein at 2 mg/ml, apparent mass from standards
[8] = biological target: HpRF, N-terminal Rossmann fold domain of HpDprA (residues 1-212) (Helicobacter pylori strain J99) (UniProt B5ZAA1); assay: SPR; BIAcore 3000; the same protein amine-coupled on a CM5 chip (~1000 RU) and injected; 25 °C, 10 mM HEPES pH 7.4, 150 mM NaCl, 1 mM EDTA, 0.05% P-20, 20 µl/min; kon from 1:1 Langmuir fit, koff from the main phase of a biphasic dissociation, Kd = koff/kon
[9] = biological target: HpRF, N-terminal Rossmann fold domain of HpDprA (residues 1-212) (Helicobacter pylori strain J99) (UniProt B5ZAA1); assay: cross-linking; glutaraldehyde on ice, SDS-10% PAGE, silver staining; HpDprA 5 µM with 0.01% to 0.5% glutaraldehyde at 4 °C for 15 min; conditions for HpRF in the legend of Fig B in S1 File

stoichiometry N [1]: 2
Kd [2]: 0.0223 µM
stoichiometry N [3]: 2 and 3
Substance: Helicobacter pylori DNA processing protein A (HpDprA), full length, strain J99 (from UniProt B5ZAA1 1-266) (natural protein)

stoichiometry N [4]: 2
Kd [5]: 2.35 µM
stoichiometry N [6]: 2
Substance: HpDML1, C-terminal DML-1 like domain of HpDprA (residues 213-266) (from UniProt B5ZAA1 213-266) (domain or fragment)

stoichiometry N [7]: 2
Kd [8]: 0.0228 µM
stoichiometry N [9]: 2
Substance: HpRF, N-terminal Rossmann fold domain of HpDprA (residues 1-212) (from UniProt B5ZAA1 1-212) (domain or fragment)
